Test results reported in patent publication US20030125515A1 (published 2003).

How the values were obtained:
[1] = molecular target: gp41 of HIV HXB2 (from the HXB2 gp160 gene, on pseudotyped virus) (HIV-1 HXB2, UniProt P04578 33-856); assay: cell-based or functional assay
[2] = molecular target: gp41 of HIV JRFL (from the JRFL gp160 gene, on pseudotyped virus) (HIV-1 JRFL); assay: cell-based or functional assay

B1: end-locked five-helix protein having SEQ ID NO.: 2 (designed binder)
chain: MCGGGSQLLSGIVQQQNNLLRAIEAQQHLLQLTVWGIKQLQASGGSGGSWMEWDREINNYTSLIHSLIEESQNQQEKNEQELLSGGCGGSQLLSGIVQQQNNLLRAIEAQQHLLQLTVWGIKQLQASGGCGGSWMEWDREINNYTSLIHSLIEESQNQQEKNEQELLSGGSGGSQLLSGIVQQQNNLLRAIEAQQHLLQLTVWGIKQLQASGGGC
modifications: disulfide bond between the cysteine of the N-terminal linker and the cysteine of inside linker 2; disulfide bond between the cysteine of the C-terminal linker and the cysteine of inside linker 3 (as in FIG. 3b)
- EC50 in the virus-cell fusion assay (HIV luciferase assay, HOS-CD4 cells) [1]: 15 nM
- EC50 in the virus-cell fusion assay (HIV luciferase assay, HOS-CD4-CCR5 cells) [2]: 0.75 nM
